# Data taken from publication doi:10.1101/2021.08.20.457137 (bioRxiv, 2021).
# B1: NabFab (Fab, V domains shown)
# VH: EVQLVESGGGLVQPGGSLRLSCAASGFNFSYYSIHWVRQAPGKGLEWVAYISSSSSYTSYADSVKGRFTISADTSKNTAYLQMNSLRAEDTAVYYCARGYQYWQYHASWYWNGGLDYWGQGTLVTVSS
# VL: DIQMTQSPSSLSASVGDRVTITCRASQSVSSAVAWYQQKPGKAPKLLIYSASSLYSGVPSRFSGSRSGTDFTLTISSLQPEDFATYYCQQSSSSLITFGQGTKVEIK
# B2: Lyso-Nb_4 (VHH)
# VHH: QRQLVESGGGLVQPGGSLRLSCAASGSTDSIEYMTWFRQAPGKEREGVAALYTHTGNTYYADSVKGRFIISRDKAKNMVYLQMNSLEPEDTAVYYCGATRKYVPVRFALDQSSYDYWGKGTPVTVSS
# B3: NorM-Nb17_4 (VHH)
# VHH: QRQLVESGGGLVQPGGSLRLSCAASGIIFKINDMGWFRQAPGKEREGVAGITSGGRTNYADSVKGRFIISRDNVKNTVYLQMNSLEPEDTAVYYCKSDGLISYAASQLSTYWGKGTPVTVSS
# How the values were obtained:
# [1] = biological target: Lyso-Nb_4 R45A (alpaca scaffold, camel CDRs); assay: SPR
# [2] = biological target: Lyso-Nb_4 K43A (alpaca scaffold, camel CDRs); assay: SPR
# [3] = biological target: Lyso-Nb_4 L11A (alpaca scaffold, camel CDRs); assay: SPR
# [4] = biological target: Lyso-Nb_4 S112A (alpaca scaffold, camel CDRs); assay: SPR
# [5] = biological target: Lyso-Nb_4 Y91A (alpaca scaffold, camel CDRs); assay: SPR
# [6] = biological target: Lyso-Nb_4 V89A (alpaca scaffold, camel CDRs); assay: SPR
# [7] = biological target: Lyso-Nb_4 W103A (alpaca scaffold, camel CDRs); assay: SPR
# [8] = biological target: Lyso-Nb_4 P41A (alpaca scaffold, camel CDRs); assay: SPR
# [9] = biological target: TC-Nb4 (alpaca); assay: SPR
# [10] = biological target: lysozyme (Gallus gallus, UniProt P00698); assay: SEC
# [11] = biological target: VcNorM (UniProt Q9KRU4); assay: SEC
binder,measurement,setting,value
B1,fold higher KD against Lyso-Nb 4,[1],> 40 fold
same,fold reduction of affinity against Lyso-Nb 4,[2],< 5 fold
same,fold reduction of affinity against Lyso-Nb 4,[3],< 5 fold
same,fold reduction of affinity against Lyso-Nb 4,[4],< 5 fold
same,fold higher KD against Lyso-Nb 4,[5],> 25 fold
same,fold reduction of affinity against Lyso-Nb 4,[6],600 fold
same,fold reduction of affinity against Lyso-Nb 4,[7],< 5 fold
same,fold reduction of affinity against Lyso-Nb 4,[8],400 fold
same,Kd,[9],860 pM
B2,binding result,[10],binds
B3,binding result,[11],binds
